Results on one molecule are retold here after patent US7732133B2, “Screening methods for biologically active ligands” (Chugai Seiyaku Kabushiki Kaisha, priority 2000, dated 2010).

The target of the experiment is T1, chimeric LIF receptor (human LIF receptor and human gp130 / mouse G-CSF receptor) in Ba/F3 cell line LIG (Homo sapiens, UniProt P40189+P42702).
T1 construct: from the 1st to the 833rd amino acid residues; expressed in transfected cells; host or cells: mouse Ba/F3 cells co-transfected with pCV-cLIFR and pCV-cgp130, clone LIG#47 = LIG
T1 sequence (P42702 45-833): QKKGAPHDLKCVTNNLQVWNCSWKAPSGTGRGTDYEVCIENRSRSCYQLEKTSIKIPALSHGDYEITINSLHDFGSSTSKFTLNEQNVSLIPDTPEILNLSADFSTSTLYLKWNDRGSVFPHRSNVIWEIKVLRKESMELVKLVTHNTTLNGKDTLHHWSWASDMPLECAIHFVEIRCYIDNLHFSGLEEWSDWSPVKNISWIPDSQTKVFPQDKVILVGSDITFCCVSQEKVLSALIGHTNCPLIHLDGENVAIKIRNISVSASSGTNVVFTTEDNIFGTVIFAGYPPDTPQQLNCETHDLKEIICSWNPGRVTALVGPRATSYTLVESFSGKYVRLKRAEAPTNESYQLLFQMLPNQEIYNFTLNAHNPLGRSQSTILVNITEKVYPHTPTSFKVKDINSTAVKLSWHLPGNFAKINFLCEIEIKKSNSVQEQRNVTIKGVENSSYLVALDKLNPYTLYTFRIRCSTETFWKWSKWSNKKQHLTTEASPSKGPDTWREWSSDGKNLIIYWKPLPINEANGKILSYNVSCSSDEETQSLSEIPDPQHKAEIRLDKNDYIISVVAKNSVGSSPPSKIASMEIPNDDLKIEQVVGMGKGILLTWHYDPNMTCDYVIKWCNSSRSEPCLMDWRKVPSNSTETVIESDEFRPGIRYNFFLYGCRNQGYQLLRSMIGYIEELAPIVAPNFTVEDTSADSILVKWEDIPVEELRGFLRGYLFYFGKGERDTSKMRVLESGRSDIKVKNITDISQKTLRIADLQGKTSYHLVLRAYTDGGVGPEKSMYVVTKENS
T1 sequence (P40189 23-619): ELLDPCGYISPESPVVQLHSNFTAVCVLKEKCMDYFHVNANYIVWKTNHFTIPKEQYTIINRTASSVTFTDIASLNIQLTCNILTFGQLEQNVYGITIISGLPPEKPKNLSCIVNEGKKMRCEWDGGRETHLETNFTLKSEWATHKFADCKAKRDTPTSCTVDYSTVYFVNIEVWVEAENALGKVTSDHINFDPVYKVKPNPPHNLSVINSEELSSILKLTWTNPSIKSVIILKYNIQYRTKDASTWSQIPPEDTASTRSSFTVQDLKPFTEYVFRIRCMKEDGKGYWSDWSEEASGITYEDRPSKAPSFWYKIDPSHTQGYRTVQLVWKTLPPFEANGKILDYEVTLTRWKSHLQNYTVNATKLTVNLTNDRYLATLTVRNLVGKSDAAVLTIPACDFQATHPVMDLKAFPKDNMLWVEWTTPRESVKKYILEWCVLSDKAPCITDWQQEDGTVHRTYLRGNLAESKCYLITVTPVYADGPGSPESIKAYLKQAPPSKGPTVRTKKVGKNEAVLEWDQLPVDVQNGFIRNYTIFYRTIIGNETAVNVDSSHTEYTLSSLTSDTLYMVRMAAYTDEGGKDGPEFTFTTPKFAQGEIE
T1 sequence (P40223 627-837 partner limits assumed): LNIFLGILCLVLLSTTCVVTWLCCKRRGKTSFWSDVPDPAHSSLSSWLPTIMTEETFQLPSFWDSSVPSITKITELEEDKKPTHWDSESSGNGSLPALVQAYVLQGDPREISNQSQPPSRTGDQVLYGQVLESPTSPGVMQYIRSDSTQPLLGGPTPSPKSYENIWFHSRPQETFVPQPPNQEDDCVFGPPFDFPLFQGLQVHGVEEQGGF
Put plainly: Growth response of chimeric LIF receptor-expressing Ba/F3 cell line LIG (WST-8). It counts as cell-based. The conditions noted are these: 72 hours culture, WST-8 absorbance. The text has this:
Chimeric receptor DNAs were constructed by linking cDNA fragments encoding human LIF receptor (from the 1st to the 833rd amino acid residues; Gearing, D P. et al. […] EMBO J., 10, 2839-2848) and human gp130 (from the 1st to the 619th amino acid residues; Hibi, M. et al. (1990) Cell, 63, 1149-1157) with the transmembrane and intracellular domains (from the 602nd to the 813th amino acid residues; Fukunaga, R. et al. (1990) Cell 61, 341-350) of mouse G-CSF receptor, respectively. These constructs were inserted downstream of the HEF1α promoter of the mammalian expression vector pCV to construct chimeric receptors expression vectors, pCV-cLIFR and pCV-cgp130, respectively. pCV-cLIFR and pCV-cgp130 were linearized with Pvu I (Takara Shuzo), respectively, extracted with phenol and chloroform, and purified by ethanol precipitation. […]
The cells were washed twice with Media A, and were suspended in Media A to give a cell density of 5×10^4 cells/mL. […] After the culture, 10 μL/well WST-8 reagent (Cell Count Reagent SF; Nacalai Tesque) was added, and pre-reaction absorbance at a measurement wavelength of 450 nm and a control wavelength of 655 nm was measured using microplate reader (Model 3550, Bio Rad). The plate was incubated for two hours in a CO2 incubator (CO2 concentration, 5%), and post-reaction absorbance was measured as above. […]
(Formazan colour is commonly taken as a measure of viable cells.)

B1: human CNTF: human ciliary neurotrophic factor (Genzyme) (protein, UniProt P26441 1-200, looked up)
Ciliary neurotrophic factor: MAFTEHSPLTPHRRDLCSRSIWLARKIRSDLTALTESYVKHQGLNKNINLDSADGMPVASTDQWSELTEAERLQENLQAYRTFHVLLARLLEDQQVHFTPTEGDFHQAIHTLLLQVAAFAYQIEELMILLEYKIPRNEADGMPINVGDGGLFEKKLWGLKVLQELSQWTVRSIHDLRFISSHQTGIPARGSHYIANNKKM
Regarding B1, the “concentration at which an evident growth reaction was observed” value was above 10 ng/mL.
